Data taken from publication PMC6555819, “Comprehensive study of nuclear receptor DNA binding provides a revised framework for understanding receptor specificity”.
Changes are numbered by the printed parent chain.

B1: NRC3_random_hg19_332_o1 (dsDNA)
DNA 1: GCTTGTCCTCAGCCTCCTGAGCAGCTGGGACTATAGGCGATTGACAGCGTAGAATGAAGG
DNA 2: CCTTCATTCTACGCTGTCAATCGCCTATAGTCCCAGCTGCTCAGGAGGCTGAGGACAAGC
B2: NRC3_wobSeed109_DR4_A19G_o1 (dsDNA)
DNA 1: GCCGTCCAAGGTCATAGGGGGTCAGTGAAGACAGATGCGATTGACAGCGTAGAATGAAGG
DNA 2: CCTTCATTCTACGCTGTCAATCGCATCTGTCTTCACTGACCCCCTATGACCTTGGACGGC
B3: NRC3_random_hg19_480_o1 (dsDNA)
DNA 1: GCGAGAATGGTCAGTACATTCAACCATGAATTCAAGGCGATTGACAGCGTAGAATGAAGG
DNA 2: CCTTCATTCTACGCTGTCAATCGCCTTGAATTCATGGTTGAATGTACTGACCATTCTCGC
B4: NRC3_random_hg19_183_o1 (dsDNA)
DNA 1: GCGAGGACAGAGTAGATCAACCTTTCCTACCTCTAAGCGATTGACAGCGTAGAATGAAGG
DNA 2: CCTTCATTCTACGCTGTCAATCGCTTAGAGGTAGGAAAGGTTGATCTACTCTGTCCTCGC
B5: NRC3_random_hg19_373_o1 (dsDNA)
DNA 1: GCTGCCACAGAGGATACTGTGACGTTATGCATCACTGCGATTGACAGCGTAGAATGAAGG
DNA 2: CCTTCATTCTACGCTGTCAATCGCAGTGATGCATAACGTCACAGTATCCTCTGTGGCAGC
B6: NRC3_random_hg19_83_o1 (dsDNA)
DNA 1: GCGCTGTACATGATGTGGCCTCCCAGCCCAGGATCTGCGATTGACAGCGTAGAATGAAGG
DNA 2: CCTTCATTCTACGCTGTCAATCGCAGATCCTGGGCTGGGAGGCCACATCATGTACAGCGC
B7: NRC3_random_hg19_263_o1 (dsDNA)
DNA 1: GCGCTGGGTAGATCTGCCACTGAAGCCTACATGGAGGCGATTGACAGCGTAGAATGAAGG
DNA 2: CCTTCATTCTACGCTGTCAATCGCCTCCATGTAGGCTTCAGTGGCAGATCTACCCAGCGC
B8: NRC3_wobSeed97_DR4_G16A_o1 (dsDNA)
DNA 1: GCCAAACTAGGTCACAAAAGGTCAAAGTCGAATGACGCGATTGACAGCGTAGAATGAAGG
DNA 2: CCTTCATTCTACGCTGTCAATCGCGTCATTCGACTTTGACCTTTTGTGACCTAGTTTGGC
B9: NRC3_wobSeed116_DR4_C16T_o1 (dsDNA)
DNA 1: GCAGAATGAGGTTACTAAAGATCAGGGAAACGCTTGGCGATTGACAGCGTAGAATGAAGG
DNA 2: CCTTCATTCTACGCTGTCAATCGCCAAGCGTTTCCCTGATCTTTAGTAACCTCATTCTGC
B10: NRC3_wobSeed101_DR4_G27T_o1 (dsDNA)
DNA 1: GCCCTTACGGGTCACTCCAGGTTATATCATCGGAGTGCGATTGACAGCGTAGAATGAAGG
DNA 2: CCTTCATTCTACGCTGTCAATCGCACTCCGATGATATAACCTGGAGTGACCCGTAAGGGC
B11: NRC3_wobSeed45_DR1_G4A_o1 (dsDNA)
DNA 1: GCTATCAAAGTTCAAAGGTAACGTAAGTATCCACACGCGATTGACAGCGTAGAATGAAGG
DNA 2: CCTTCATTCTACGCTGTCAATCGCGTGTGGATACTTACGTTACCTTTGAACTTTGATAGC
B12: NRC3_wobSeed114_DR4_G9A_o1 (dsDNA)
DNA 1: GCAATACAAGGTCATCGTAGGCCAGAGTACGCACAGGCGATTGACAGCGTAGAATGAAGG
DNA 2: CCTTCATTCTACGCTGTCAATCGCCTGTGCGTACTCTGGCCTACGATGACCTTGTATTGC
B13: NRC3_wobSeed73_DR3_A5C_o1 (dsDNA)
DNA 1: GCCACACTAGGTCACAGAGGTCAAAGTCCGTGCGTAGCGATTGACAGCGTAGAATGAAGG
DNA 2: CCTTCATTCTACGCTGTCAATCGCTACGCACGGACTTTGACCTCTGTGACCTAGTGTGGC
B14: NRC3_wobSeed100_DR4_G16T_o1 (dsDNA)
DNA 1: GCCCTACTGGGCCACTAAAGGTCATTGATTCAGTGAGCGATTGACAGCGTAGAATGAAGG
DNA 2: CCTTCATTCTACGCTGTCAATCGCTCACTGAATCAATGACCTTTAGTGGCCCAGTAGGGC
B15: NRC3_wobSeed116_DR4_A9G_o1 (dsDNA)
DNA 1: B9 DNA 1 with A9G, T16C
DNA 2: B9 DNA 2 with A45G, T52C
B16: NRC3_wobSeed42_DR1_G9A_o1 (dsDNA)
DNA 1: GCTATACAAGGTCAAAGGCCAGAGTACGAATGTCGAGCGATTGACAGCGTAGAATGAAGG
DNA 2: CCTTCATTCTACGCTGTCAATCGCTCGACATTCGTACTCTGGCCTTTGACCTTGTATAGC
B17: NRC3_wobSeed104_DR4_A11G_o1 (dsDNA)
DNA 1: GCTCTTGTAGGTCAATAGAGGTTAAGAAAGTGCGCTGCGATTGACAGCGTAGAATGAAGG
DNA 2: CCTTCATTCTACGCTGTCAATCGCAGCGCACTTTCTTAACCTCTATTGACCTACAAGAGC
B18: NRC3_wobSeed64_DR2_G5C_o1 (dsDNA)
DNA 1: GCTACCCTAGGTCATTGGGCCAGTATAGTACGCATCGCGATTGACAGCGTAGAATGAAGG
DNA 2: CCTTCATTCTACGCTGTCAATCGCGATGCGTACTATACTGGCCCAATGACCTAGGGTAGC
B19: NRC3_wobSeed117_DR4_A18G_o1 (dsDNA)
DNA 1: GCCGTCAAAGTTCAACTGAGGTAACGTAAAGCACGCGCGATTGACAGCGTAGAATGAAGG
DNA 2: CCTTCATTCTACGCTGTCAATCGCGCGTGCTTTACGTTACCTCAGTTGAACTTTGACGGC
B20: NRC3_wobSeed105_DR4_A13T_o1 (dsDNA)
DNA 1: GCATCTCTAGGTTAAGATAGTTCAGTGAATGCAAATGCGATTGACAGCGTAGAATGAAGG
DNA 2: CCTTCATTCTACGCTGTCAATCGCATTTGCATTCACTGAACTATCTTAACCTAGAGATGC
B21: NRC3_wobSeed49_DR2_G11T_o1 (dsDNA)
DNA 1: GCCAAACTAGTTCAAGAGGTCAAAGTCCGCTTCCCGGCGATTGACAGCGTAGAATGAAGG
DNA 2: CCTTCATTCTACGCTGTCAATCGCCGGGAAGCGGACTTTGACCTCTTGAACTAGTTTGGC
B22: NRC3_wobSeed136_DR5_G5C_o1 (dsDNA)
DNA 1: GCTACCCTAGGTCATTCAGGGGCCAGTATAGAAAGCGCGATTGACAGCGTAGAATGAAGG
DNA 2: CCTTCATTCTACGCTGTCAATCGCGCTTTCTATACTGGCCCCTGAATGACCTAGGGTAGC
B23: NRC3_wobSeed100_DR4_T8G_o1 (dsDNA)
DNA 1: B14 DNA 1 with T8G, T16G
DNA 2: B14 DNA 2 with A45C, A53C

What was measured:
Experiment in all cases: no ligand; PBM; 270 nM : 90 nM RXRa; PBS pH 7.4, 2% milk, 0.02% Triton X-100, 1 mM DTT, BSA, 0.4 mg/ml salmon testes DNA
VDR:RXRa = VDR:RXRa (Homo sapiens, UniProt P11473;P19793 full;full); conditions: tags: His kept;His cleaved; copies: 1;1; label: surface-attached array probe
Chain of VDR:RXRa (P11473 whole entry, chain 1 of 2): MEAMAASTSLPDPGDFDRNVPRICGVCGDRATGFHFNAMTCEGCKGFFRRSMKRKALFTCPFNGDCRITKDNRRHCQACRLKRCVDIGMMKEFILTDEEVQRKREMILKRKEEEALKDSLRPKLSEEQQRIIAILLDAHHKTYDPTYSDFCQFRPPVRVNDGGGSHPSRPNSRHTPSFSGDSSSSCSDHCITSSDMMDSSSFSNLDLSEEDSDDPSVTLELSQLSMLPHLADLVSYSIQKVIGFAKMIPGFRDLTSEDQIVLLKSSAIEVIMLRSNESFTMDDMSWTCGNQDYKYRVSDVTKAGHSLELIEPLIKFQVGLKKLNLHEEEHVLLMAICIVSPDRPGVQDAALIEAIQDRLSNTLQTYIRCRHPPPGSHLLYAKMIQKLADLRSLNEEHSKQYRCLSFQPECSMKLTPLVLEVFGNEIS
Chain of VDR:RXRa (P19793 whole entry, chain 2 of 2): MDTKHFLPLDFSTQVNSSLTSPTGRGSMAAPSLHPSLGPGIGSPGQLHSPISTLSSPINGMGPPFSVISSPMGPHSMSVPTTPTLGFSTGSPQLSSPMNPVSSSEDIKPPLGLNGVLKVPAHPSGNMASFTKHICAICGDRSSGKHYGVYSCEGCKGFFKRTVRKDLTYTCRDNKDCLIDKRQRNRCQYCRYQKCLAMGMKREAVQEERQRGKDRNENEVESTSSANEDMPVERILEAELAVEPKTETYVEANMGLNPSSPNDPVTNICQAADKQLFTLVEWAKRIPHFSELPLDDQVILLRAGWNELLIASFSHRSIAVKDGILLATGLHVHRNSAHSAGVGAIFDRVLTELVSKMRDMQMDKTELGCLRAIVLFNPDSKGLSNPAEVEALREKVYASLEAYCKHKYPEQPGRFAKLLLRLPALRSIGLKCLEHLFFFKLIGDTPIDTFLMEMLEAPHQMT
Procedure, shortened: (§1)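 Probes were double-stranded and carried 34-nt variable regions with direct-repeat seeds, single-nucleotide variants, half-site ablations and random human genomic background sequences, printed on custom Agilent 4×180K protein-binding microarrays. Arrays were incubated 1 h with ligand-free nuclear receptor dimers in PBS pH 7.4, 2% milk, 0.02% Triton X-100, 1 mM DTT, 0.2 mg/mL BSA and 0.4 mg/ml salmon testes DNA. Antibodies against each partner (one per run) detected binding, and scanned fluorescence was regression-normalized. Binding z-scores use the random background probes as reference.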

LXRb:RXRa = LXRb:RXRa (Homo sapiens, UniProt P55055;P19793 full;full); conditions: tags: His kept;His cleaved; copies: 1;1; label: surface-attached array probe
Chain of LXRb:RXRa (P55055 whole entry, chain 1 of 2): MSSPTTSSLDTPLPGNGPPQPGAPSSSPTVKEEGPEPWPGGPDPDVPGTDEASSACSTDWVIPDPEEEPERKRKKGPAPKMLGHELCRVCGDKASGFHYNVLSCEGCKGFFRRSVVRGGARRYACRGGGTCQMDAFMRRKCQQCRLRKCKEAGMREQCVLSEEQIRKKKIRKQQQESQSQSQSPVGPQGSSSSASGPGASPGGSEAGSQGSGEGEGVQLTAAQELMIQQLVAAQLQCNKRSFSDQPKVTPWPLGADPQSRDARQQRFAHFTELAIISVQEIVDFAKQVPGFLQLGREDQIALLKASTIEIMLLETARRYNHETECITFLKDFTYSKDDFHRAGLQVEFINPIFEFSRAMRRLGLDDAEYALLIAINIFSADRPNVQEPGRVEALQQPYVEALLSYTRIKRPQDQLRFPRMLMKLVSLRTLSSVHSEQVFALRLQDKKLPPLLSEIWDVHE
Chain of LXRb:RXRa (P19793 whole entry, chain 2 of 2): as the sequence (P19793 whole entry, chain 2 of 2) above
Procedure, shortened: as §1

FXR:RXRa = FXR:RXRa (Homo sapiens, UniProt Q96RI1;P19793 full;full); conditions: tags: His kept;His cleaved; copies: 1;1; label: surface-attached array probe
Chain of FXR:RXRa (Q96RI1 whole entry, chain 1 of 2): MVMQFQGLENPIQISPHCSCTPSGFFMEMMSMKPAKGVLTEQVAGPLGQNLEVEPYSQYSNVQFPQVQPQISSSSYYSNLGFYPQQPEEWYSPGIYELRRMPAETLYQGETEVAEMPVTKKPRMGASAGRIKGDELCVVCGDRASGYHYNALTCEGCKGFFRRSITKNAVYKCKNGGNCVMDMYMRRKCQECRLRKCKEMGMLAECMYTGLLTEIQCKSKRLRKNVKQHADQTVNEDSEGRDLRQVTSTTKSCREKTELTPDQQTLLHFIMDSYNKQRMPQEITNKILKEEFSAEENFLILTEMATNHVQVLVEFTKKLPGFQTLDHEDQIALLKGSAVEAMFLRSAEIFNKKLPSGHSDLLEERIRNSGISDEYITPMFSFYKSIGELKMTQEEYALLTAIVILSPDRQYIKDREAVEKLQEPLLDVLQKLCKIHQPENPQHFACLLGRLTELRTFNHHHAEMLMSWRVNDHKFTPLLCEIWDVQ
Chain of FXR:RXRa (P19793 whole entry, chain 2 of 2): as the sequence (P19793 whole entry, chain 2 of 2) above
Procedure, shortened: as §1

RARg:RXRa = RARg:RXRa (Homo sapiens, UniProt P13631;P19793 full;full); conditions: tags: His kept;His cleaved; copies: 1;1; label: surface-attached array probe
Chain of RARg:RXRa (P13631 whole entry, chain 1 of 2): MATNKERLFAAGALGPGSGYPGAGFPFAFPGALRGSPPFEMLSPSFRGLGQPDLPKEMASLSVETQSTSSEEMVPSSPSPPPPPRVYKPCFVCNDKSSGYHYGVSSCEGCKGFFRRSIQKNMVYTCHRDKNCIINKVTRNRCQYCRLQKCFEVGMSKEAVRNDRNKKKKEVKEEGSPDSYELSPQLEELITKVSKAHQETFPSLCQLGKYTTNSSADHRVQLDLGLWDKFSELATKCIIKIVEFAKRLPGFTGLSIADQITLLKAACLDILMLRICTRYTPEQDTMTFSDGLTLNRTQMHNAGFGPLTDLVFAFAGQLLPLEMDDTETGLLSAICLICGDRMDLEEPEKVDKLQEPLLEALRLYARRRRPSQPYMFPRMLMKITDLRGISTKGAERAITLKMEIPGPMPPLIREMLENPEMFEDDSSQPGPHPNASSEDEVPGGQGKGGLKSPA
Chain of RARg:RXRa (P19793 whole entry, chain 2 of 2): as the sequence (P19793 whole entry, chain 2 of 2) above
Procedure, shortened: as §1

PPARa:RXRa = PPARa:RXRa (Homo sapiens, UniProt Q07869;P19793 full;full); conditions: tags: GST kept;His cleaved; copies: 1;1; label: surface-attached array probe
Chain of PPARa:RXRa (Q07869 whole entry, chain 1 of 2): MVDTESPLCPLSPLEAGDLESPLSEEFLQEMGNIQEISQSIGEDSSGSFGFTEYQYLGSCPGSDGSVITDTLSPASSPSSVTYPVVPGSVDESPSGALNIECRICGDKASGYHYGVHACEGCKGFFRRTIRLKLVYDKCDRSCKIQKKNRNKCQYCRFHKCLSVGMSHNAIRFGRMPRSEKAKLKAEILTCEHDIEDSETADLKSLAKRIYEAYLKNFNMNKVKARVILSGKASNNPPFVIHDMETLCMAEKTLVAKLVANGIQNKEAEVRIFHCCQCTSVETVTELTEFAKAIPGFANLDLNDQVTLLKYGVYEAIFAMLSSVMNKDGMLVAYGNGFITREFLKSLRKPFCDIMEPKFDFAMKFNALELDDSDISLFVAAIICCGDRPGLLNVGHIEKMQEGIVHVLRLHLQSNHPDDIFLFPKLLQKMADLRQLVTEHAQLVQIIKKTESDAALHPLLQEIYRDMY
Chain of PPARa:RXRa (P19793 whole entry, chain 2 of 2): as the sequence (P19793 whole entry, chain 2 of 2) above
Procedure, shortened: as §1

LXRa:RXRa = LXRa:RXRa (Homo sapiens, UniProt Q13133;P19793 full;full); conditions: tags: His kept;His cleaved; copies: 1;1; label: surface-attached array probe
Chain of LXRa:RXRa (Q13133 whole entry, chain 1 of 2): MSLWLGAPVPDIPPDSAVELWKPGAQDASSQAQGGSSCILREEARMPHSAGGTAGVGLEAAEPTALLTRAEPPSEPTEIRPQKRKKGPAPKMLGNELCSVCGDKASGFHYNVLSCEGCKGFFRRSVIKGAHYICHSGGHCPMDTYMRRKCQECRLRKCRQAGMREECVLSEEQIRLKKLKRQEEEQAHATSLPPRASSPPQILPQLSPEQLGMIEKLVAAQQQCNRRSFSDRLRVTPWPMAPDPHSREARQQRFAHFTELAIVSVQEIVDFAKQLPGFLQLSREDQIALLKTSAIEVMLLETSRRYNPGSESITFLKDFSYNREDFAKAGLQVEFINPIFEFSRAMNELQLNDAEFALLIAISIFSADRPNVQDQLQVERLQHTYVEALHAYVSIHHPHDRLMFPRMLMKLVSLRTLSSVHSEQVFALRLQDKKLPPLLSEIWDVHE
Chain of LXRa:RXRa (P19793 whole entry, chain 2 of 2): as the sequence (P19793 whole entry, chain 2 of 2) above
Procedure, shortened: as §1

Row | Binder | binding signal (VDR:RXRa) | binding signal (LXRb:RXRa) | binding signal (LXRa:RXRa) | also measured
1 | B1 | -1.03 PBM z-score against 500 random probes | -1.23 PBM z-score against 500 random probes |  | binding signal (FXR:RXRa): -0.13 PBM z-score against 500 random probes
2 | B2 | 7.46 PBM z-score against 500 random probes | 7.12 PBM z-score against 500 random probes |  | binding signal (RARg:RXRa): 7.6 PBM z-score against 500 random probes; binding signal (FXR:RXRa): 8.21 PBM z-score against 500 random probes
3 | B3 | 0.03 PBM z-score against 500 random probes | -0.32 PBM z-score against 500 random probes |  | 
4 | B4 | 0.02 PBM z-score against 500 random probes | -0.11 PBM z-score against 500 random probes |  | 
5 | B5 | -0.23 PBM z-score against 500 random probes | -0.59 PBM z-score against 500 random probes |  | 
6 | B6 | -0.48 PBM z-score against 500 random probes | -0.83 PBM z-score against 500 random probes |  | binding signal (PPARa:RXRa): -0.53 PBM z-score against 500 random probes
7 | B7 | -0.87 PBM z-score against 500 random probes | -1.05 PBM z-score against 500 random probes |  | 
8 | B8 |  |  | 8.65 PBM z-score against 500 random probes | 
9 | B9 |  |  | 8.1 PBM z-score against 500 random probes | 
10 | B10 |  |  | 8.05 PBM z-score against 500 random probes | 
11 | B11 |  |  | 7.29 PBM z-score against 500 random probes | 
12 | B12 |  |  | 7.16 PBM z-score against 500 random probes | 
13 | B13 |  |  | 7.06 PBM z-score against 500 random probes | 
14 | B14 |  |  | 7.03 PBM z-score against 500 random probes | 
15 | B15 |  |  | 7.02 PBM z-score against 500 random probes | 
16 | B16 |  |  | 7.02 PBM z-score against 500 random probes | 
17 | B17 |  |  | 7.01 PBM z-score against 500 random probes | 
18 | B18 |  |  | 6.89 PBM z-score against 500 random probes | 
19 | B19 |  |  | 6.87 PBM z-score against 500 random probes | 
20 | B20 |  |  | 6.81 PBM z-score against 500 random probes | 
21 | B21 |  |  | 6.74 PBM z-score against 500 random probes | 
22 | B22 |  |  | 6.72 PBM z-score against 500 random probes | 
23 | B23 |  |  | 6.67 PBM z-score against 500 random probes | 
